Key:
[1] = biological target: T1, native human NRP-1 on the cell surface (human, UniProt O14786 22-923); assay: flow cytometry, MDA-MB-231 cells, 10 ug/ml, +heparinase
T1 construct: whole, on cells; endogenous protein; isoform and glycosaminoglycan state on the cells not defined; also called native NRP-1 on MDA-MB-231 cells; native form of NRP-1 protein on the CTCs cell surface

[2] = biological target: T2, recombinant human NRP-1 (3870-N1-025, Bio-Techne) (human, UniProt O14786 22-856); assay: ELISA, antibody 10 µg/ml, 1 µg immobilised human NRP-1
T2 construct: extracellular domain; bought protein; also called human recombinant NRP-1

[3] = biological target: Replication protein A 70 kDa DNA-binding subunit (human) (UniProt P27694); assay: co-IP from CTC41.5E lysate, LC-MS/MS, peak area against isotype IP
Histone H2A.Z (human) = Histone H2A.Z (human) (UniProt P0C0S5); assay: as above
[4] = biological target: Sister chromatid cohesion protein PDS5 homolog B (human) (UniProt Q9NTI5); assay: as above
[5] = biological target: DNA repair protein complementing XP-C cells (human) (UniProt Q01831); assay: as above
[6] = biological target: DNA topoisomerase 2-alpha (human) (UniProt P11388); assay: as above
[7] = biological target: FACT complex subunit SPT16 (human) (UniProt Q9Y5B9); assay: as above
Histone H3.1 (human) = Histone H3.1 (human) (UniProt P68431); assay: as above
[8] = biological target: DNA mismatch repair protein Msh2 (human) (UniProt P43246); assay: as above
[9] = biological target: DNA topoisomerase 1 (human) (UniProt P11387); assay: as above
[10] = biological target: Poly [ADP-ribose] polymerase 2 (human) (UniProt Q9UGN5); assay: as above
[11] = biological target: DNA mismatch repair protein Msh6 (human) (UniProt P52701); assay: as above
[12] = biological target: X-ray repair cross-complementing protein 5 (human) (UniProt P13010); assay: as above
[13] = biological target: Werner syndrome ATP-dependent helicase (human) (UniProt Q14191); assay: as above
[14] = biological target: SWI/SNF-related matrix-associated actin-dependent regulator of chromatin subfamily A member 5 (human) (UniProt O60264); assay: as above
[15] = biological target: Poly [ADP-ribose] polymerase 1 (human) (UniProt P09874); assay: as above
[16] = biological target: DNA-directed RNA polymerase I subunit RPA1 (human) (UniProt O95602); assay: as above
[17] = biological target: Core histone macro-H2A.1 (human) (UniProt O75367); assay: as above

B1: variant 4 of a-NRP1_LEP n° 1 (antibody, V domains shown)
VH: EVQLVESGGGLVQPGGSLRLSCAASGFTFSSFGMHWVRQAPGKGLEWVAYISSGSSTIHYADSVKGRFTISRDNAKNSLYLQMNSLRAEDTAMYYCARRHYGSSRYWYFDVWGQGTTVTVSS
VL: EIVLTQSPATLSLSPGERATLSCRASQSVKSYLAWYQQKPGQAPRLLIYYASSRATGIPARFSGSGSGTDFTLTISSLEPEDFAVYYCQQYSESPYTFGQGTKLEIK
notes: humanized variant of 21B10; isotype control hIgG4; also called variant 4 a-NRP1_LEP; variant n°4 a-NRP1_LEP
- percentage of binding [1]: 10.1%
- Absorbance [2]: 0.953
- Ratio Area V4/IgG4 [3]: 13.6
- Ratio Area V4/IgG4 (Histone H2A.Z (human)): 624
- Ratio Area V4/IgG4 [4]: 12.5
- Ratio Area V4/IgG4 [5]: 480
- Ratio Area V4/IgG4 [6]: 538
- Ratio Area V4/IgG4 [7]: 5490
- Ratio Area V4/IgG4 (Histone H3.1 (human)): 304
- Ratio Area V4/IgG4 [8]: 335
- Ratio Area V4/IgG4 [9]: 6880
- Ratio Area V4/IgG4 [10]: 1
- Ratio Area V4/IgG4 [11]: 813
- Ratio Area V4/IgG4 [12]: 38.7
- Ratio Area V4/IgG4 [13]: 759
- Ratio Area V4/IgG4 [14]: 589
- Ratio Area V4/IgG4 [15]: 709
- Ratio Area V4/IgG4 [16]: 785
- Ratio Area V4/IgG4 [17]: 8780

Source: patent US20260226176A1 (THERANOVIR, published 2026)
